Measurements as given in patent US20250002588A1 (DIAGONAL THERAPEUTICS, published 2025).

biological target: ALK-1/BMPR-2 receptor pair of the PathHunter U2Os dimerization cells (DiscoverX 93-0962C3) (UniProt P37023 22-503; Q13873 27-1038); assay: cell-based or functional assay
Sequence (P37023 22-503, chain 1 of 2): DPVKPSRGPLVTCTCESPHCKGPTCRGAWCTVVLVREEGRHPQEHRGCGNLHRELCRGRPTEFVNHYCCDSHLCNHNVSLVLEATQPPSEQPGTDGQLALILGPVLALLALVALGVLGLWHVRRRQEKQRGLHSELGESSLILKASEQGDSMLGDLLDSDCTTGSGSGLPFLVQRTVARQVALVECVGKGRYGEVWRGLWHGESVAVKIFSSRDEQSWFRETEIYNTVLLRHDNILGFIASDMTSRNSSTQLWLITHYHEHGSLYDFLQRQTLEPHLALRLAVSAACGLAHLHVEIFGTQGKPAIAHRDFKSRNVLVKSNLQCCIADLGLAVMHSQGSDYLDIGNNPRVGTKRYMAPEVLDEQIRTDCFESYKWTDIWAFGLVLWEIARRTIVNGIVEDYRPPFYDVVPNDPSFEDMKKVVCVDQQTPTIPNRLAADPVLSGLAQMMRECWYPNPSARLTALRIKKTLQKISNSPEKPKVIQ
Sequence (Q13873 27-1038, chain 2 of 2): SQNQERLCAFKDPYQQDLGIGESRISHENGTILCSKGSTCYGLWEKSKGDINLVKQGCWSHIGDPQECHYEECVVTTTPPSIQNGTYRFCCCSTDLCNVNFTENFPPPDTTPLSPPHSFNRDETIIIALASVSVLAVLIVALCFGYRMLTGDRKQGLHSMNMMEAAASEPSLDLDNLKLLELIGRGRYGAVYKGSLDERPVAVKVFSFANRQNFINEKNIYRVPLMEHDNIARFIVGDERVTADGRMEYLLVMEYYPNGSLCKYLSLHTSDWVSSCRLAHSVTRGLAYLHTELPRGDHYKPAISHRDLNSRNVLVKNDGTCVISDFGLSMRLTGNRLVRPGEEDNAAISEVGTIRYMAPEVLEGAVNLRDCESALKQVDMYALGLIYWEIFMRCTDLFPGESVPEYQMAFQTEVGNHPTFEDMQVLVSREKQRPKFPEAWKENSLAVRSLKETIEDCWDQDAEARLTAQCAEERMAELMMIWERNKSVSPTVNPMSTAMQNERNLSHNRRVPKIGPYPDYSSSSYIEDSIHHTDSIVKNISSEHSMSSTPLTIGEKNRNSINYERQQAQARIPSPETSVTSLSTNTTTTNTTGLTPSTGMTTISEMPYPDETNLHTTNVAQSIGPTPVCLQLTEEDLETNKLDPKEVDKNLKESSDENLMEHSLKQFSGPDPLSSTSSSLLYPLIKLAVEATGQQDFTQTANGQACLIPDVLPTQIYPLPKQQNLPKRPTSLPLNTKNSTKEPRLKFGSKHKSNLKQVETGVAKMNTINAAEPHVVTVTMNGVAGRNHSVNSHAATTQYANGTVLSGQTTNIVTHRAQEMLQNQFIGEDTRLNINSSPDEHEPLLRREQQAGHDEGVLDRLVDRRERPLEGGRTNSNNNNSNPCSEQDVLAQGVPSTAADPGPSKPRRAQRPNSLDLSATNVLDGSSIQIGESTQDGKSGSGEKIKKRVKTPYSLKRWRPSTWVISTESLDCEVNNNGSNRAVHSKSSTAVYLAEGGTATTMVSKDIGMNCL

Binder	% Emax BMP9 [%]	EC50 [nM]	Emax (RLU)
DGL286 (bispecific antibody) EVQLLESGGGLVQPGGSLRLSCAASGFTFSNAWMNWVRQAPGKGLEWVSSISSSSSYIYYADSVKGRFTISRDNSKNTLYLQMNSLRAEDTAVYYCARAVAAGGMFWGLDQWGQGTLVTVTSSGGGGSGGGGSGGGGSQSVLTQPPSASGTPGQRVTISCSGSRSNIGSNSVHWYQQLPGTAPKLLIYGNSNRPSGVPDRFSGSKSGTSASLAISGLRSEDEADYYCQSYDSSLNDHVVFGGGTKLTVLDKGPSVFPLAPEPKSSEVQLLESGGGLVQPGGSLRLSCAASGFTFSIYAMSWVRQAPGKGLEWVSAISGSGGSTYYADSVKGRFTISRDNSKNTLYLQMNSLRAEDTAVYYCARDFDYWGQGTLVTVTSSGGGGSGGGGSGGGGSQSVLTQPPSASGTPGQRVTISCSGSSSNIGSNYVYWYQQLPGTAPKLLIYGNINRPSGVPDRFSGSKSGTSASLAISGLRSEDEADYYCAAWDDSLNGRVFGGGTKLTVLDKTHTCPPCPAPEAAGAPSVFLFPPKPKDTLMISRTPEVTCVVVDVSHEDPEVKFNWYVDGVEVHNAKTKPREEQYNSTYRVVSVLTVLHQDWLNGKEYKCKVSNKALPAPIEKTISKAKGQPREPQVYTLPPSRDELTKNQVSLTCLVKGFYPSDIAVEWESNGQPENNYKTTPPVLDSDGSFFLYSKLTVDKSRWQQGNVFSCSVMHEALHNHYTQKSLSLSPG	68	0.2	1.8e+06
DGL281 (bispecific antibody, human IgG1, lambda) heavy: not shown light: not shown EVQLLESGGGLVQPGGSLRLSCAASGFTFSDYYMTWIRQAPGKGLEWVSSISGGSTYYADSRKGRFTISRDNSENTLYLQMNSLRAEDTAVYYCARDFGVAGWFGQYGMDVWGQGTLVTVSSGGGGSGGGGSGGGGSQSVLTQPPSASGTPGQRVTISCTGSSSNIGAGYDVHWYQQLPGTAPKLLIYRSNQRPSGVPDRFSGSKSGTSASLAISGLRSEDEADYYCSSYAGNYNLVFGGGTKLTVLDKTHTCPPCPAPEAAGAPSVFLFPPKPKDTLMISRTPEVTCVVVDVSHEDPEVKFNWYVDGVEVHNAKTKPREEQYNSTYRVVSVLTVLHQDWLNGKEYKCKVSNKALPAPIEKTISKAKGQPREPQVCTLPPSRDELTKNQVSLSCAVKGFYPSDIAVEWESNGQPENNYKTTPPVLDSDGSFFLVSKLTVDKSRWQQGNVFSCSVMHEALHNHYTQKSLSLSPGKWSHPQFEK	42	330	1.11e+06
DGL285 (bispecific antibody) EVQLLESGGGLVQPGGSLRLSCAASGFTFSIYAMSWVRQAPGKGLEWVSAISGSGGSTYYADSVKGRFTISRDNSKNTLYLQMNSLRAEDTAVYYCARDFDYWGQGTLVTVTSSGGGGSGGGGSGGGGSQSVLTQPPSASGTPGQRVTISCSGSSSNIGSNYVYWYQQLPGTAPKLLIYGNINRPSGVPDRFSGSKSGTSASLAISGLRSEDEADYYCAAWDDSLNGRVFGGGTKLTVLDKGPSVFPLAPEPKSSEVQLLESGGGLVQPGGSLRLSCAASGFTFSNAWMNWVRQAPGKGLEWVSSISSSSSYIYYADSVKGRFTISRDNSKNTLYLQMNSLRAEDTAVYYCARAVAAGGMFWGLDQWGQGTLVTVTSSGGGGSGGGGSGGGGSQSVLTQPPSASGTPGQRVTISCSGSRSNIGSNSVHWYQQLPGTAPKLLIYGNSNRPSGVPDRFSGSKSGTSASLAISGLRSEDEADYYCQSYDSSLNDHVVFGGGTKLTVLDKTHTCPPCPAPEAAGAPSVFLFPPKPKDTLMISRTPEVTCVVVDVSHEDPEVKFNWYVDGVEVHNAKTKPREEQYNSTYRVVSVLTVLHQDWLNGKEYKCKVSNKALPAPIEKTISKAKGQPREPQVYTLPPSRDELTKNQVSLTCLVKGFYPSDIAVEWESNGQPENNYKTTPPVLDSDGSFFLYSKLTVDKSRWQQGNVFSCSVMHEALHNHYTQKSLSLSPG	56	0.08	1.47e+06
DGL282 (bispecific antibody, human IgG1, lambda) heavy 1: EVQLLESGGGLVQPGGSLRLSCAASGFTFSIYAMSWVRQAPGKGLEWVSAISGSGGSTYYADSVKGRFTISRDNSKNTLYLQMNSLRAEDTAVYYCARDFDYWGQGTLVTVTSSASVAAPSVFIFPPSDEQLKSGTASVVCLLNNFYPREAKVQWKVDNALQSGNSQESVTEQDSKDSTYSLSSTLTLSKADYEKHKVYACEVTHQGLSSPVTKSFNRGECDKTHTCPPCPAPEAAGAPSVFLFPPKPKDTLMISRTPEVTCVVVDVSHEDPEVKFNWYVDGVEVHNAKTKPREEQYNSTYRVVSVLTVLHQDWLNGKEYKCKVSNKALPAPIEKTISKAKGQPREPQVCTLPPSRDELTKNQVSLSCAVKGFYPSDIAVEWESNGQPENNYKTTPPVLDSDGSFFLVSKLTVDKSRWQQGNVFSCSVMHEALHNHYTQKSLSLSPGWSHPQFEK light 1: QSVLTQPPSASGTPGQRVTISCSGSSSNIGSNYVYWYQQLPGTAPKLLIYGNINRPSGVPDRFSGSKSGTSASLAISGLRSEDEADYYCAAWDDSLNGRVFGGGTKLTVLSSASTKGPSVFPLAPSSKSTSGGTAALGCLVKDYFPEPVTVSWNSGALTSGVHTFPAVLQSSGLYSLSSVVTVPSSSLGTQTYICNVNHKPSNTKVDKKVEPKSC heavy 2: not shown light 2: not shown	36	170	954000
DGL283 (bispecific antibody, human IgG1, lambda) heavy 1: EVQLLESGGGLVQPGGSLRLSCAASGFTFSSYAMSWVRQAPGKGLEWVANINQDGSEKNYVDSMRGRFTISRDNSKNTLYLQMNSLRAEDTAVYYCAREFDYWGQGTLVTVTSSASVAAPSVFIFPPSDEQLKSGTASVVCLLNNFYPREAKVQWKVDNALQSGNSQESVTEQDSKDSTYSLSSTLTLSKADYEKHKVYACEVTHQGLSSPVTKSFNRGECDKTHTCPPCPAPEAAGAPSVFLFPPKPKDTLMISRTPEVTCVVVDVSHEDPEVKFNWYVDGVEVHNAKTKPREEQYNSTYRVVSVLTVLHQDWLNGKEYKCKVSNKALPAPIEKTISKAKGQPREPQVCTLPPSRDELTKNQVSLSCAVKGFYPSDIAVEWESNGQPENNYKTTPPVLDSDGSFFLVSKLTVDKSRWQQGNVFSCSVMHEALHNHYTQKSLSLSPGWSHPQFEK light 1: QSVLAQPPSASGTPGQRVTISCSGSSSNIGSNYVYWYQQLPGTAPKLLIYGNNKRPSGVPDRFSGSKSGTSASLAISGLRSEDEADYYCAAWDDSLNGRVFGGGTKLTVLSSASTKGPSVFPLAPSSKSTSGGTAALGCLVKDYFPEPVTVSWNSGALTSGVHTFPAVLQSSGLYSLSSVVTVPSSSLGTQTYICNVNHKPSNTKVDKKVEPKSC heavy 2: not shown light 2: not shown	33	28	879000
DGL266 (bispecific antibody) chain 1: EVQLLESGGGLVQPGGSLRLSCAASGFTFSIYAMSWVRQAPGKGLEWVSAISGSGGSTYYADSVKGRFTISRDNSKNTLYLQMNSLRAEDTAVYYCARDFDYWGQGTLVTVTSSGGGGSGGGGSGGGGSQSVLTQPPSASGTPGQRVTISCSGSSSNIGSNYVYWYQQLPGTAPKLLIYGNINRPSGVPDRFSGSKSGTSASLAISGLRSEDEADYYCAAWDDSLNGRVFGGGTKLTVLGGGGSGGGGSGGGGSGVECPPCPAPPVAGPSVFLFPPKPKDTLMISRTPEVTCVVVDVSHEDPEVQFNWYVDGVEVHNAKTKPREEQFNSTFRVVSVLTVVHQDWLNGKEYKCKVSNKGLPAPIEKTISKTKGQPREPQVYTLPPCREEMTKNQVSLWCLVKGFYPSDIAVEWESNGQPENNYKTTPPMLDSDGSFFLYSKLTVDKSRWQQGNVFSCSVMHEALHNHYTQKSLSLSPG chain 2: EVQLLESGGGLVQPGGSLRLSCAASGFTFSNAWMNWVRQAPGKGLEWVSSISSSSSYIYYADSVKGRFTISRDNSKNTLYLQMNSLRAEDTAVYYCARAVAAGGMFWGLDQWGQGTLVTVTSSGGGGSGGGGSGGGGSQSVLTQPPSASGTPGQRVTISCSGSRSNIGSNSVHWYQQLPGTAPKLLIYGNSNRPSGVPDRFSGSKSGTSASLAISGLRSEDEADYYCQSYDSSLNDHVVFGGGTKLTVLGGGGSGGGGSGGGGSGVECPPCPAPPVAGPSVFLFPPKPKDTLMISRTPEVTCVVVDVSHEDPEVQFNWYVDGVEVHNAKTKPREEQFNSTFRVVSVLTVVHQDWLNGKEYKCKVSNKGLPAPIEKTISKTKGQPREPQVCTLPPSREEMTKNQVSLSCAVKGFYPSDIAVEWESNGQPENNYKTTPPMLDSDGSFFLVSKLTVDKSRWQQGNVFSCSVMHEALHNHYTQKSLSLSPG	39	2	1.04e+06
DGL287 (bispecific antibody) EVQLLESGGGLVQPGGSLRLSCAASGFTFSSYAMSWVRQAPGKGLEWVANINQDGSEKNYVDSMRGRFTISRDNSKNTLYLQMNSLRAEDTAVYYCAREFDYWGQGTLVTVTSSGGGGSGGGGSGGGGSQSVLAQPPSASGTPGQRVTISCSGSSSNIGSNYVYWYQQLPGTAPKLLIYGNNKRPSGVPDRFSGSKSGTSASLAISGLRSEDEADYYCAAWDDSLNGRVFGGGTKLTVLDKGPSVFPLAPEPKSSEVQLLESGGGLVQPGGSLRLSCAASGFTFSDYYMTWIRQAPGKGLEWVSSISGGSTYYADSRKGRFTISRDNSENTLYLQMNSLRAEDTAVYYCARDFGVAGWFGQYGMDVWGQGTLVTVSSGGGGSGGGGSGGGGSQSVLTQPPSASGTPGQRVTISCTGSSSNIGAGYDVHWYQQLPGTAPKLLIYRSNQRPSGVPDRFSGSKSGTSASLAISGLRSEDEADYYCSSYAGNYNLVFGGGTKLTVLDKTHTCPPCPAPEAAGAPSVFLFPPKPKDTLMISRTPEVTCVVVDVSHEDPEVKFNWYVDGVEVHNAKTKPREEQYNSTYRVVSVLTVLHQDWLNGKEYKCKVSNKALPAPIEKTISKAKGQPREPQVYTLPPSRDELTKNQVSLTCLVKGFYPSDIAVEWESNGQPENNYKTTPPVLDSDGSFFLYSKLTVDKSRWQQGNVFSCSVMHEALHNHYTQKSLSLSPG	48	0.04	1.26e+06
DGL288 (bispecific antibody) EVQLLESGGGLVQPGGSLRLSCAASGFTFSDYYMTWIRQAPGKGLEWVSSISGGSTYYADSRKGRFTISRDNSENTLYLQMNSLRAEDTAVYYCARDFGVAGWFGQYGMDVWGQGTLVTVSSGGGGSGGGGSGGGGSQSVLTQPPSASGTPGQRVTISCTGSSSNIGAGYDVHWYQQLPGTAPKLLIYRSNQRPSGVPDRFSGSKSGTSASLAISGLRSEDEADYYCSSYAGNYNLVFGGGTKLTVLDKGPSVFPLAPEPKSSEVQLLESGGGLVQPGGSLRLSCAASGFTFSSYAMSWVRQAPGKGLEWVANINQDGSEKNYVDSMRGRFTISRDNSKNTLYLQMNSLRAEDTAVYYCAREFDYWGQGTLVTVTSSGGGGSGGGGSGGGGSQSVLAQPPSASGTPGQRVTISCSGSSSNIGSNYVYWYQQLPGTAPKLLIYGNNKRPSGVPDRFSGSKSGTSASLAISGLRSEDEADYYCAAWDDSLNGRVFGGGTKLTVLDKTHTCPPCPAPEAAGAPSVFLFPPKPKDTLMISRTPEVTCVVVDVSHEDPEVKFNWYVDGVEVHNAKTKPREEQYNSTYRVVSVLTVLHQDWLNGKEYKCKVSNKALPAPIEKTISKAKGQPREPQVYTLPPSRDELTKNQVSLTCLVKGFYPSDIAVEWESNGQPENNYKTTPPVLDSDGSFFLYSKLTVDKSRWQQGNVFSCSVMHEALHNHYTQKSLSLSPG	76	0.07	2e+06
